The source of these data is US20240376224A1 (University of California, published 2024).

For test [1], the target named is T1, c-CDCP1-Fc (Cut 3) (human, UniProt Q9H5V8 30-369; Q9H5V8 370-667).
T1 construct: Co-transfection of NTF and CTF-Fc plasmids; not shown: Fc domain
T1 sequence 1: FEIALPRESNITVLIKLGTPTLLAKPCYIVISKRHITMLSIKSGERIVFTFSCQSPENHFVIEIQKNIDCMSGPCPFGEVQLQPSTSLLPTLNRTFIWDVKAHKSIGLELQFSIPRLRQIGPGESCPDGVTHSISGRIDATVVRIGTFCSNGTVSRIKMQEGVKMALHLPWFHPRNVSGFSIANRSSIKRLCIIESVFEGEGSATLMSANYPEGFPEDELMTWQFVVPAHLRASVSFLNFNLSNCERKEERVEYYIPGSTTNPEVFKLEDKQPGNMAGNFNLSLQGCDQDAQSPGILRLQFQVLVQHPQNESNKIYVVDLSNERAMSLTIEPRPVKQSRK
T1 sequence 2: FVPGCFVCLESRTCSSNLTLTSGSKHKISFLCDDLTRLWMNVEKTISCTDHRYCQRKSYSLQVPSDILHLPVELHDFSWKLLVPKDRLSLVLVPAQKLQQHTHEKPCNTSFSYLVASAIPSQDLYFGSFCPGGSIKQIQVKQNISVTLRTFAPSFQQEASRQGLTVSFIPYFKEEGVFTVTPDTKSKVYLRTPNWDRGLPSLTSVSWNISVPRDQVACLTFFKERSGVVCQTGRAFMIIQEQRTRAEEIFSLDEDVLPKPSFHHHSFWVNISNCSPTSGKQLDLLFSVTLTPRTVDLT
Put plainly: BLI (Octet), table of in vitro binding affinities. As for the experimental part:
(§1) BLI experiments were performed using an Octet RED384 instrument (ForteBio). Biotinylated proteins were immobilized on a streptavidin (SA) biosensor and His-tagged proteins were immobilized on a Ni-NTA biosensor. Different concentrations of analyte in PBS pH 7.4+0.05% Tween-20+0.2% BSA (PBSTB) were used as analyte. Affinities (KDS) were calculated from a global fit (1:1) of the data using the Octet RED384 software.
On the technique in general: In BLI a coated tip is dipped into the sample, and binding shifts an interference pattern.

Test [2] has as its target T2, c-CDCP1-Fc (Cut 2) (human, UniProt Q9H5V8 30-368; Q9H5V8 369-667).
T2 construct: Co-transfection of NTF and CTF-Fc plasmids; not shown: Fc domain
T2 sequence 1: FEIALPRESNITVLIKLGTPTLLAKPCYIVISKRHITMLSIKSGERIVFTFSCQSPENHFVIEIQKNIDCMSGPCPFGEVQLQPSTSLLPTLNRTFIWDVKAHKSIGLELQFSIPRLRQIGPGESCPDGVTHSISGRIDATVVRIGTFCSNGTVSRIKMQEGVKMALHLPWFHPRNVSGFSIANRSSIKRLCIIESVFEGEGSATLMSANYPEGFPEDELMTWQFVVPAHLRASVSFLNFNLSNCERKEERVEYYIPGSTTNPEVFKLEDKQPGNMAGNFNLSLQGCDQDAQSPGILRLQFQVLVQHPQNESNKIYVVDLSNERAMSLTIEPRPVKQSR
T2 sequence 2: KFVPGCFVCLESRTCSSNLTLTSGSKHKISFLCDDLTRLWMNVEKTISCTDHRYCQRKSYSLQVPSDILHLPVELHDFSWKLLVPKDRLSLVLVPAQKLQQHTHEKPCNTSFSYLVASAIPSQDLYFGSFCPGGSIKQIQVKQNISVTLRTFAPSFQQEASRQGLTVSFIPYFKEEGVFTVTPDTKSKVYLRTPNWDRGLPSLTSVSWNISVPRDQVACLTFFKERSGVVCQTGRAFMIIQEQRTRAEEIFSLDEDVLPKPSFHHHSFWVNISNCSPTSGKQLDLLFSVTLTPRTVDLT
As to the kind of experiment: BLI (Octet), table of in vitro binding affinities. How it is done: as §1

Test [3] addresses T3, c-CDCP1-Fc (Cut 1) (human, UniProt Q9H5V8 30-365; Q9H5V8 366-667).
T3 construct: Co-transfection of NTF and CTF-Fc plasmids; not shown: Fc domain
T3 sequence 1: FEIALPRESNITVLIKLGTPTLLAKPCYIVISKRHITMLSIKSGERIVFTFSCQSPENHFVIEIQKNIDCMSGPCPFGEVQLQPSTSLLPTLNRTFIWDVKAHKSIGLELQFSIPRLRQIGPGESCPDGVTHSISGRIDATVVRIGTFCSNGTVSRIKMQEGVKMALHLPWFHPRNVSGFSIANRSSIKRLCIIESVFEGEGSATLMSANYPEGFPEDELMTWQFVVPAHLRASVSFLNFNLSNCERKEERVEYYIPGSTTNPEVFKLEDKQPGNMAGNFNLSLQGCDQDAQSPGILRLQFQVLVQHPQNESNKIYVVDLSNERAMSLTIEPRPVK
T3 sequence 2: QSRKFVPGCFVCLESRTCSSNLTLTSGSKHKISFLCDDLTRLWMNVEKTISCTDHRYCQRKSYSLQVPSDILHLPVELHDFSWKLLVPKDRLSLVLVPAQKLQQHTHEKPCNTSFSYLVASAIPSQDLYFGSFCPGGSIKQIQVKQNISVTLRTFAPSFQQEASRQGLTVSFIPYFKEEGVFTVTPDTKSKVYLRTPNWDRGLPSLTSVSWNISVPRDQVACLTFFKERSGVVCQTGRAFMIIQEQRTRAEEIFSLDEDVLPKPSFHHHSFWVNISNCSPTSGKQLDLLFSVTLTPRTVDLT
As to the kind of experiment: BLI (Octet), table of in vitro binding affinities. As for the experimental part:
as §1

In test [4] the target is c-CDCP1. As to the kind of experiment: BLI (Octet RED384).

B1: CL03 IgG (antibody, V domains shown)
VH: EVQLVESGGGLVQPGGSLRLSCAASGFNFSSYSIHWVRQAPGKGLEWVASIYPYSGSTYYADSVKGRFTISADTSKNTAYLQMNSLRAEDTAVYYCARQSHSYYSHTWWVSYGMDYWGQGTLVTVSS
VL: DIQMTQSPSSLSASVGDRVTITCRASQSVSSAVAWYQQKPGKAPKLLIYSASSLYSGVPSRFSGSRSGTDFTLTISSLQPEDFATYYCQQSGQRPITFGQGTKVEIKR
notes: also called IgG CL03
As usually defined, the Kd is the equilibrium constant for the complex coming apart. Low values mean a tighter complex, high ones a looser complex. Usually koff stands for the rate constant with which the complex falls apart. The term kon denotes the second-order rate constant of association. The low end stands for slow association, the high end for fast association. Take B1: the Kd in test [1] was 150 pM; in test [2], 370 pM; in test [3], 840 pM; in test [4] it was 150 to 840 pM. In addition, the koff stood at 7.43e-05 s⁻¹ in test [1], 0.000174 s⁻¹ in test [2] and 0.000535 s⁻¹ in test [3]. Also, the kon in test [1] was found to be 492000 M⁻¹ s⁻¹; in test [2], 473000 M⁻¹ s⁻¹; in test [3], 640000 M⁻¹ s⁻¹.
